Data on 9 molecules can be found in patent US20190112393 (published 2019).

Like-named read-outs stand apart in the source and are kept apart here. Some results are limits rather than exact numbers.

One test addresses T1, human FcγRIIa type H (human, UniProt P12318).
T1 chain: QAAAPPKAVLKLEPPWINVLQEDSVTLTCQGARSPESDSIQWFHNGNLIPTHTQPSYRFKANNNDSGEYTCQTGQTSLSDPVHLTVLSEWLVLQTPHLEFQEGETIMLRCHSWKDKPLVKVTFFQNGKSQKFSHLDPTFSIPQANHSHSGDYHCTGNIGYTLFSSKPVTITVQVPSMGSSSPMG
Kind of test: SPR. In general terms: Surface plasmon resonance follows binding to a sensor surface in real time, without labels.

The target of test [1] is T2, human FcγRIa (human, UniProt P12314).
T2 chain: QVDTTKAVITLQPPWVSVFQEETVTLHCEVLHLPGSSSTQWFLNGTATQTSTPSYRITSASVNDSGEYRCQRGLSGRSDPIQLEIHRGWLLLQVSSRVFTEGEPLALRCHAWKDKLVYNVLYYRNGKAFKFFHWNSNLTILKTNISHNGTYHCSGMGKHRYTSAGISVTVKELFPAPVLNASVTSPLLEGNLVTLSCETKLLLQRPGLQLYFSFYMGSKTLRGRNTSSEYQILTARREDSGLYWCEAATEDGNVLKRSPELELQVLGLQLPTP
Kind of test: SPR.

The target in test [2] is T2, human FcγRIa. Kind of test: SPR.
Test [3] concerns the target T2, human FcγRIa. The test can be described thus: SPR.
For the next test, the target named is T3, human FcγRIIb (human, UniProt P31994).
T3 chain: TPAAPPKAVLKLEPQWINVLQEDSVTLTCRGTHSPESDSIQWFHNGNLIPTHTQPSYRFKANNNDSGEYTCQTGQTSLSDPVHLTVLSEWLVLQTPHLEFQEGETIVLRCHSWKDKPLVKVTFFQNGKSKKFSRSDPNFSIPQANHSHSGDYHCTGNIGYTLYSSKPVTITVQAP
Kind of test: SPR.

The target of test [4] is human IgE (human). Kind of test: SPR, pH 5.8, 1.2 mM Ca, 37C.
Test [5] has as its target human IgE (human). Kind of test: SPR, pH 7.4, 1.2 mM Ca, 37C.
The target in test [6] is human IgE (human). The test can be described thus: SPR, pH 5.8, 3 uM Ca, 37C.
Test [7] addresses human IgA (human). The test can be described thus: SPR, pH 7.4, 3 uM Ca, 37C.
The target of test [8] is human IgA (human). Kind of test: SPR, pH 5.8, 3 uM Ca, 37C.
human IgA (human), sequence (VH, as listed by the source): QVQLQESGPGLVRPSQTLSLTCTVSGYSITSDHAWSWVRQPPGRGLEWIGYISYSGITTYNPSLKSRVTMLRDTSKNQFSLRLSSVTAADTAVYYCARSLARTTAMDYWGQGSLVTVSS
The target of test [9] is human IgA (human). Kind of test: SPR, pH 7.4, 1.2 mM Ca, 37C.
In test [10] the target is human IgA (human). The test can be described thus: SPR, pH 5.8, 1.2 mM Ca, 37C.
Another test has as its target T4, human IL-6 receptor (human, UniProt P08887).
T4 chain: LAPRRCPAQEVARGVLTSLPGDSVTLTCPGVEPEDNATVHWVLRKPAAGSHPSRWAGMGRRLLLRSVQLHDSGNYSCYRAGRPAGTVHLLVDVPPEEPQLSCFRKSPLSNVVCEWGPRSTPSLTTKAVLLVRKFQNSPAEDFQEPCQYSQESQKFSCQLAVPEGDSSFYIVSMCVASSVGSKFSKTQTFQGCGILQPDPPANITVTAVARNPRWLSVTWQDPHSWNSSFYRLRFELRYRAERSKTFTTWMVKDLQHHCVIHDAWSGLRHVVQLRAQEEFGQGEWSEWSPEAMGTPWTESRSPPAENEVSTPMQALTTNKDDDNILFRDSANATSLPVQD
Kind of test: SPR, pH 7.4, 3 uM Ca, 37C.

B1: BP438 (antibody)
chain 1: QVQLQESGPGLVKPSETLSLTCAVSGHSISHDHAWSWVRQPPGEGLEWIGFISYSGITNYNPSLQGRVTISRDNSKNTLYLQMNSLRAEDTAVYYCARSLARTTAMDYWGEGTLVTVSSASTKGPSVFPLAPSSKSTSGGTAALGCLVKDYFPEPVTVSWNSGALTSGVHTFPAVLQSSGLYSLSSVVTVPSSSLGTQTYICNVNHKPSNTKVDKKVEPKSCDKTHTCPPCPAPDLLGDDSVFLFPPKPKDTLMISRTPEVTCVVVDVAEEDGEVKFNWYVDGVEVHNAKTKPREEQYNSTYRVVSVLTVLHQDWLNGKEYKCKVSNKALPRPTEKTISKAKGQPREPQVYTLPPSRDELTKNQVSLTCLVKGFYPSDIAVEWESNGQPENNYKTTPPVLDSDGSFFLYSKLTVDKSRWQQGNVFSCSVMHEALHNHYTQESLSLSP
chain 2: not shown
Turning to B1, the Kd (as a rule, a measure of binding affinity in units of concentration) with human FcγRIIa type H came out at 1600 nM.

B2: BP267 (antibody)
chain 1: QVQLQESGPGLVKPSETLSLTCAVSGHSISHDHAWSWVRQPPGEGLEWIGFISYSGITNYNPSLQGRVTISRDNSKNTLYLQMNSLRAEDTAVYYCARSLARTTAMDYWGEGTLVTVSSASTKGPSVFPLAPSSKSTSGGTAALGCLVKDYFPEPVTVSWNSGALTSGVHTFPAVLQSSGLYSLSSVVTVPSSSLGTQTYICNVNHKPSNTKVDKKVEPKSCDKTHTCPPCPAPDLLGDDSVFLFPPKPKDTLMISRTPEVTCVVVDVSEEDGEVKFNWYVDGVEVHNAKTKPREEQYNSTYRVVSVLTVLHQDWLNGKEYKCKVSNKALPAPIEKTISKAKGQPREPQVYTLPPSRDELTKNQVSLTCLVKGFYPSDIAVEWESNGQPENNYKTTPPVLDSDGSFFLYSKLTVDKSRWQQGNVFSCSVMHEALHNHYTQESLSLSP
chain 2: not shown
In turn, B2 returned a Kd with human FcγRIa [1] of 4 nM.

B3: BP447 (antibody)
chain 1: QVQLQESGPGLVKPSETLSLTCAVSGHSISHDHAWSWVRQPPGEGLEWIGFISYSGITNYNPSLQGRVTISRDNSKNTLYLQMNSLRAEDTAVYYCARSLARTTAMDYWGEGTLVTVSSASTKGPSVFPLAPSSKSTSGGTAALGCLVKDYFPEPVTVSWNSGALTSGVHTFPAVLQSSGLYSLSSVVTVPSSSLGTQTYICNVNHKPSNTKVDKKVEPKSCDKTHTCPPCPAPDLLGDDSVFLFPPKPKDTLMISRTPEVTCVVVDVAEEDGEVKFNWYVDGVEVHNAKTKPREEQYNSTYRVVSVLTVLHQDWLNGKEYKCKVSNKALPRPIEKTISKAKGQPREPQVYTLPPSRDELTKNQVSLTCLVKGFYPSDIAVEWESNGQPENNYKTTPAVLDSDGSFFLYSKLTVDKSRWQQGNVFSCSVMHEALHNHYTQESLSLSP
chain 2: not shown
With B3, the Kd with human FcγRIa [2] is 0.9 nM.

B4: BP384 (antibody)
chain 1: QVQLQESGPGLVKPSETLSLTCAVSGHSISHDHAWSWVRQPPGEGLEWIGFISYSGITNYNPSLQGRVTISRDNSKNTLYLQMNSLRAEDTAVYYCARSLARTTAMDYWGEGTLVTVSSASTKGPSVFPLAPSSKSTSGGTAALGCLVKDYFPEPVTVSWNSGALTSGVHTFPAVLQSSGLYSLSSVVTVPSSSLGTQTYICNVNHKPSNTKVDKKVEPKSCDKTHTCPPCPAPDLLGDDSVFLFPPKPKDTLMISRTPEVTCVVVDVSDEDGEVKFNWYVDGVEVHNAKTKPREEQDNSTYRVVSVLTVLHQDWLNGKEYKCKVSNKALPRPIERTISKAKGQPREPQVYTLPPSRDELTKNQVSLTCLVKGFYPSDIAVEWESNGQPENNYKTTPPVLDSDGSFFLYSKLTVDKSRWQQGNVFSCSVMHEALHNHYTQESLSLSP
chain 2: not shown
For the molecule B4, binding in the test with human FcγRIa [3] was characterised by a dissociation constant (Kd) of 3 nM.

B5: BP468 (antibody)
chain 1: QVQLQESGPGLVKPSETLSLTCAVSGHSISHDHAWSWVRQPPGEGLEWIGFISYSGITNYNPSLQGRVTISRDNSKNTLYLQMNSLRAEDTAVYYCARSLARTTAMDYWGEGTLVTVSSASTKGPSVFPLAPSSKSTSGGTAALGCLVKDYFPEPVTVSWNSGALTSGVHTFPAVLQSSGLYSLSSVVTVPSSSLGTQTYICNVNHKPSNTKVDKKVEPKSCDKTHTCPPCPAPDLLGDDSVFLFPPKPKDTLMISRTPEVTCVVVDVSDEDGEVKFNWYVDGVEVHNAKTKPREEQDNSTYRVVSVLTVLHQDWLNGKEYKCKVSNKALPRPIETTISKAKGQPREPQVYTLPPSRDELTKNQVSLTCLVKGFYPSDIAVEWESNGQPENNYKTTPPVLDSDGSFFLYSKLTVDKSRWQQGNVFSCSVMHEALHNHYTQESLSLSP
chain 2: not shown
B5 returned a Kd in the test with human FcγRIIb of 40 nM.

B6: BP456 (antibody)
chain 1: QVQLQESGPGLVKPSETLSLTCAVSGHSISHDHAWSWVRQPPGEGLEWIGFISYSGITNYNPSLQGRVTISRDNSKNTLYLQMNSLRAEDTAVYYCARSLARTTAMDYWGEGTLVTVSSASTKGPSVFPLAPSSKSTSGGTAALGCLVKDYFPEPVTVSWNSGALTSGVHTFPAVLQSSGLYSLSSVVTVPSSSLGTQTYICNVNHKPSNTKVDKKVEPKSCDKTHTCPPCPAPDLLGDDSVFLFPPKPKDTLMISRTPEVTCVVVDVAEEDGEVKFNWYVDGVEVHNAKTKPREEQYNSTYRVVSVLTVLHQDWLNGKEYKCKVSNKALPRPIEKTISKAKGQPREPQVYTLPPSRDELTKNQVSLTCLVKGFYPSDIAVEWESNGQPENNYKTTPMVLDSDGSFFLYSKLTVDKSRWQQGNVFSCSVMHEALHNHYTQESLSLSP
chain 2: not shown
B6 showed a Kd in the test with human FcγRIa [2] of 0.6 nM.

B7: 278-IgG1 (clone 278) (antibody, V domains shown)
VH: QSLEESGGRLVTPGTPLTLTCTASGFSLSSYHMSWVRQAPGKGLEWIGVINSAGNTYYASWAKGRFTVSKTSTTVDLNLTSLTTEDTATYFCARYVFSSGSHDIWGPGTLVTVSS
VL: AYDMTQTPASVEVAVGGTVTIKCQASQSIGSWLAWYQQKPGQPPKELIYGTSTLESGVPSRFIGSGSGTEFTLTISGVECADAATYYCQQGYSEDNIDNAFGGGTEVVVKR
Consider B7, for which the values for the equilibrium dissociation constant (Kd) with human IgE [4], with human IgE [5] and with human IgE [6] were 2000 nM, 2.4 nM and 3900 nM, respectively.

B8: GA2-IgG1 (antibody, V domains shown)
VH: QVQLVQSGAEVKKPGSSVKVSCKASGGTFSSYAISWVRQAPGQGLEWMGGIIPIFGTANYAQKFQGRVTITADESTSTAYMELSSLRSEDTAVYYCARPRWETAISSDAFDIWGQGTMVTVSS
VL: DIQMTQSPSSLSASVGDRVTITCRASQSISDDLNWYQQKPGKAPKLLIYEASNLQSGVPSRFSGSGSGTDFTLTISSLQPEDFATYYCQQHSSSPLTFGQGTKVEIKR
With B8, the Kd was 6700 nM with human IgA [7], 5000 nM with human IgA [8], 39 nM with human IgA [9] and 4000 nM with human IgA [10].

B9: 6RL#9-IgG1 (antibody, V domains shown)
VH: QVQLVQSGAEVKKPGASVKVSCKASGYTFTSYYMHWVRQAPGQGLEWMGIINPSGGSTSYAQKFQGRVTMTRDTSTSTVYMELSSLRSEDTAVYYCARDDPGGGEYYFDYWGQGTLVTVSS
VL: QSVLTQPPSVSGAPGQRVTISCTGSRSNMGAGYDVHWYQLLPGAAPKLLISHNTHRPSGVPDRFSGSKSGASASLAITGLQAEDEADYYCQSHDSSLSAVVFGGGTKLTVLS
In the case of B9, the Kd in the test with human IL-6 receptor is > 31000 nM.
